Measurements published in paper PMC9798004 (Frontiers in Psychiatry, 2022).
Where “and” joins values, the source holds several entries; their conditions need not be identical. Equal entries are not always repeated.

Columns and labels:
Assay type in all cases: cell-based
[1] = target: T1, CXCR2 (Homo sapiens, UniProt P25025); experiment: PathHunter β-arrestin assay; conditions: screen, control agonist; CHO, 37C, 2HR
T1 construct: purchased Eurofins DiscoverX (PathHunter gpcrMAX)
T1 sequence (P25025 1-360): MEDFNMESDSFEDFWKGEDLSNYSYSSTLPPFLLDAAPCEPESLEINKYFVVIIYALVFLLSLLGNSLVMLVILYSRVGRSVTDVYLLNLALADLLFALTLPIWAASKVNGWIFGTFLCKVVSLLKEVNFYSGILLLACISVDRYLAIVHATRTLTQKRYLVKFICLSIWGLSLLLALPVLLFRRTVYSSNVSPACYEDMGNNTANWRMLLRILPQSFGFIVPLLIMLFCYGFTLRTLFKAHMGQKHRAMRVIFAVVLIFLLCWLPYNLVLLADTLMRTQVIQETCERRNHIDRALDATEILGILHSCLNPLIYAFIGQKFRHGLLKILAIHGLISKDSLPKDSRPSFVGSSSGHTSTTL

[2] = target: T2, CXCR1 (Homo sapiens, UniProt P25024); experiment: PathHunter β-arrestin assay; conditions: screen, control agonist; U20S, 37C, 2HR
T2 construct: purchased Eurofins DiscoverX (PathHunter gpcrMAX)
T2 sequence (P25024 1-350): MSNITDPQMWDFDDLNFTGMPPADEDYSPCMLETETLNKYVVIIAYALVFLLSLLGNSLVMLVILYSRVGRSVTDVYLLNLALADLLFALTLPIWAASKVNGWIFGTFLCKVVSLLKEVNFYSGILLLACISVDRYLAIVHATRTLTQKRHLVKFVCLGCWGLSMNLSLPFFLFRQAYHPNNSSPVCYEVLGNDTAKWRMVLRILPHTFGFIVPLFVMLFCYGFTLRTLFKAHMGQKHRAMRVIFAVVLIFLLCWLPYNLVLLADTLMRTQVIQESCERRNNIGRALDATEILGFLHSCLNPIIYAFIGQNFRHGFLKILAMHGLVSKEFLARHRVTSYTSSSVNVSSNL

[3] = target: T3, CCR1 (Homo sapiens, UniProt P32246); experiment: PathHunter β-arrestin assay; conditions: screen, control agonist; CHO, 37C, 2HR
T3 construct: purchased Eurofins DiscoverX (PathHunter gpcrMAX)
T3 sequence (P32246 1-355): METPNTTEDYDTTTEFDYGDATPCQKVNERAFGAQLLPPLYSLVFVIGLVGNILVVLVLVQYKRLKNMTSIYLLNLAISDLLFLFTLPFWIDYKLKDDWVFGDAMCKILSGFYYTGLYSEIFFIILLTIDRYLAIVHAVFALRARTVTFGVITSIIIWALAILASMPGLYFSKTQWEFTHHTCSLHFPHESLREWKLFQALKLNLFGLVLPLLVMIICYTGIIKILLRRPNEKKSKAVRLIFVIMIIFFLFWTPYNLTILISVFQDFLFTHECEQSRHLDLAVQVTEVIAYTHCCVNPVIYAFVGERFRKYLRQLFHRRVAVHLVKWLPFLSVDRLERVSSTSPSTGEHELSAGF

[4] = target: T4, CCR5 (Homo sapiens, UniProt P51681); experiment: PathHunter β-arrestin assay; conditions: screen, control agonist; CHO, 37C, 2HR
T4 construct: purchased Eurofins DiscoverX (PathHunter gpcrMAX)

[5] = target: T5, CXCR3 (Homo sapiens, UniProt P49682); experiment: PathHunter β-arrestin assay; conditions: screen, control agonist; CHO, 37C, 2HR
T5 construct: purchased Eurofins DiscoverX (PathHunter gpcrMAX)
T5 sequence (P49682 1-368): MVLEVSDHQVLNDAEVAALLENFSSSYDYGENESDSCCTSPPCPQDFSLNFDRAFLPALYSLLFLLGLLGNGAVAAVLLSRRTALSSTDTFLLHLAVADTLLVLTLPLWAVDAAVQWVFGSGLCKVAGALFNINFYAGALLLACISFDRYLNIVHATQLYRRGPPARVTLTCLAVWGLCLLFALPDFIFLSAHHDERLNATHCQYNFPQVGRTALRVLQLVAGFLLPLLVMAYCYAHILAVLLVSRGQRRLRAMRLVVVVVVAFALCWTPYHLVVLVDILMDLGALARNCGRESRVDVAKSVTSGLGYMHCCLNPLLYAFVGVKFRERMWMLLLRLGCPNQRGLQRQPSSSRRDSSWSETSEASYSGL

[6] = target: T6, CRHR2 (Homo sapiens, UniProt Q13324); experiment: PathHunter β-arrestin assay; conditions: screen, control agonist; CHO, RT, 2HR
T6 construct: purchased Eurofins DiscoverX (PathHunter gpcrMAX)

[7] = target: T7, CCR2 (Homo sapiens, UniProt P41597); experiment: PathHunter β-arrestin assay; conditions: screen, control agonist; CHO, 37C, 2HR
T7 construct: purchased Eurofins DiscoverX (PathHunter gpcrMAX)

[8] = target: T8, CHRM2 (Homo sapiens, UniProt P08172); experiment: PathHunter β-arrestin assay; conditions: control agonist
T8 sequence (P08172 1-466): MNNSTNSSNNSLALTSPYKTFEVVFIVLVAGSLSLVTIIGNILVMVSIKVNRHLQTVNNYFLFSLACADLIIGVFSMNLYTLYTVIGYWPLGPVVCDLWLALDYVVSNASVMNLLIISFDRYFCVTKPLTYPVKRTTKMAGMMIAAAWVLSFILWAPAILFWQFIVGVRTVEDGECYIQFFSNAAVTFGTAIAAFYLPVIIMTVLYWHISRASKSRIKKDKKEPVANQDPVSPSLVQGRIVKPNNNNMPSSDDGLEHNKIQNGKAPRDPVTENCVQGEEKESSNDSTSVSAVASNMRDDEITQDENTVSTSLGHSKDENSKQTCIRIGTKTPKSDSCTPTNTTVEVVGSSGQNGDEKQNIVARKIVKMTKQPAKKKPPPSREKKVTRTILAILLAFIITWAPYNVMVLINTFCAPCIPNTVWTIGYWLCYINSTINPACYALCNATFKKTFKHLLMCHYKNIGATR

[9] = target: T9, CHRM5 (Homo sapiens, UniProt P08912); experiment: PathHunter β-arrestin assay; conditions: screen, control agonist; CHO, 37C, 2HR
T9 construct: purchased Eurofins DiscoverX (PathHunter gpcrMAX)

[10] = target: T10, CHRM4 (Homo sapiens, UniProt P08173); experiment: PathHunter β-arrestin assay; conditions: screen, control agonist; CHO, 37C, 2HR
T10 construct: purchased Eurofins DiscoverX (PathHunter gpcrMAX)

[11] = target: CHRM3 (Homo sapiens, UniProt P20309)
[12] = target: T11, CCR7 (Homo sapiens, UniProt P32248); experiment: PathHunter β-arrestin assay; conditions: screen, control agonist; CHO, 37C, 2HR
T11 construct: purchased Eurofins DiscoverX (PathHunter gpcrMAX)
T11 sequence (P32248 25-378): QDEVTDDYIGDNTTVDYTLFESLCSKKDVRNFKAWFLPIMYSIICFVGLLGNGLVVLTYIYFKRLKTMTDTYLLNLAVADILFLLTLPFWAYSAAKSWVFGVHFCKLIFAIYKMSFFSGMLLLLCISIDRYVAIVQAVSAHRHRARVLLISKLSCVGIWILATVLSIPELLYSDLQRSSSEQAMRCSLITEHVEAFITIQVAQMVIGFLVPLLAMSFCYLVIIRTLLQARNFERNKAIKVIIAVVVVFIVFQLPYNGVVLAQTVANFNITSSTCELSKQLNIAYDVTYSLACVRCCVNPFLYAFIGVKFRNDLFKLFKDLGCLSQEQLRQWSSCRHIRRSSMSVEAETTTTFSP

[13] = target: T12, CNR1 (CB1) (Homo sapiens, UniProt P21554); experiment: PathHunter β-arrestin assay; conditions: screen, control agonist; CHO, 37C, 2HR
T12 construct: host or cells: CHO

[14] = test system: AtT20 cells wildtype (WT); experiment: LDH release cytotoxicity assay; conditions: 30 μM
Description: AtT20 cells expressing either human CB1 (hCB1) or CB2 (hCB2) receptors or wildtype (WT) were grown to confluence in T75 cm^2 flasks in Dulbecco's modified eagle medium containing 10% fetal bovine serum, 100 U penicillin/streptomycin, and 80 μg/mL hygromicyin (Sigma-Aldrich/Merck; Castle Hill, NSW, Australia). Cells were plated in 96-well-microplates at 30,000 cells per well and allowed to adhere overnight in 5% CO2. The following morning, cells were treated with either vehicle (0.1% DMSO; negative control), 30 μM Δ^9-THC, or 30 μM AMB-FUBINACA. At 1 or 6 h, the amount of lactate dehydrogenase in the cell media was tested, and compared with positive control (lysed cells) as per manufacturer's instructions (Dojindo Molecular Technologies, Inc.; Rockville, MD, USA), with readings performed on a Clariostar Plus plate reader (BMG Labtech, Mornington, VIC, Australia). Experiments were performed in triplicate. In order to measure any accumulating LDH, media was not changed after initial incubation. Data is represented as means ± S.E.M. A two-way ANOVA with was performed on the data at each time point, with Tukey's multiple comparison test (α = 0.05). A p < 0.05 was considered statistically significant.

[15] = target: T13, CNR2 (Homo sapiens, UniProt P34972); experiment: PathHunter β-arrestin assay; conditions: screen, control agonist; CHO, RT, 2HR
T13 construct: purchased Eurofins DiscoverX (PathHunter gpcrMAX)

[16] = target: T14, CRTH2 (Homo sapiens, UniProt Q9Y5Y4); experiment: PathHunter β-arrestin assay; conditions: screen, control agonist; U2OS, RT, 2HR
T14 construct: purchased Eurofins DiscoverX (PathHunter gpcrMAX)

[17] = target: T15, CCR3 (Homo sapiens, UniProt P51677); experiment: PathHunter β-arrestin assay; conditions: screen, control agonist; CHO, 37C, 2HR
T15 construct: purchased Eurofins DiscoverX (PathHunter gpcrMAX)
T15 sequence (P51677 1-355): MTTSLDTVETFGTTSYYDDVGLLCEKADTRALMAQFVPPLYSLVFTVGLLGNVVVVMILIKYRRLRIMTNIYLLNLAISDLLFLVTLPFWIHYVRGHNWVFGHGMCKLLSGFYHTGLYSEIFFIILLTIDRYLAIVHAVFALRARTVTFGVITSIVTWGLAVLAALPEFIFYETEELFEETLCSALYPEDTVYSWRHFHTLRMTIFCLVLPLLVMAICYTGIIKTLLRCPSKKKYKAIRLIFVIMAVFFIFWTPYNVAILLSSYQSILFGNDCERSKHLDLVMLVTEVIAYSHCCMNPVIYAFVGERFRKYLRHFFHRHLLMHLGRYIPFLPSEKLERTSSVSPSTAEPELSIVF

[18] = target: T16, CXCR5 (Homo sapiens, UniProt P32302); experiment: PathHunter β-arrestin assay; conditions: screen, control agonist; CHO, 37C, 2HR
T16 construct: purchased Eurofins DiscoverX (PathHunter gpcrMAX)
T16 sequence (P32302 1-372): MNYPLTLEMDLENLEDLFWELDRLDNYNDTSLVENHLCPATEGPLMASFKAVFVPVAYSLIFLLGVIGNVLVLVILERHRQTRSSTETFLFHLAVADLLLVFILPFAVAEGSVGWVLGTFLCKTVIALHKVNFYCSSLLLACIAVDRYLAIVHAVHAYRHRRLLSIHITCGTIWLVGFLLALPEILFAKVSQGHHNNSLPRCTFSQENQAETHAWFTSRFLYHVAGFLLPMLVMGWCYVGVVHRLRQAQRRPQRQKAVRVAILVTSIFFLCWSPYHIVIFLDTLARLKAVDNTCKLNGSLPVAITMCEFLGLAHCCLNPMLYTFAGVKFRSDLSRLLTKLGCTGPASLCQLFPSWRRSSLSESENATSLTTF

[19] = target: T17, CXCR4 (Homo sapiens, UniProt P61073); experiment: PathHunter β-arrestin assay; conditions: screen, control agonist; C2C12, 37C, 2HR
T17 construct: purchased Eurofins DiscoverX (PathHunter gpcrMAX)

[20] = target: T18, CX3CR1 (Homo sapiens, UniProt P49238); experiment: PathHunter β-arrestin assay; conditions: screen, control agonist; CHO, 37C, 2HR
T18 construct: purchased Eurofins DiscoverX (PathHunter gpcrMAX)
T18 sequence (P49238 1-355): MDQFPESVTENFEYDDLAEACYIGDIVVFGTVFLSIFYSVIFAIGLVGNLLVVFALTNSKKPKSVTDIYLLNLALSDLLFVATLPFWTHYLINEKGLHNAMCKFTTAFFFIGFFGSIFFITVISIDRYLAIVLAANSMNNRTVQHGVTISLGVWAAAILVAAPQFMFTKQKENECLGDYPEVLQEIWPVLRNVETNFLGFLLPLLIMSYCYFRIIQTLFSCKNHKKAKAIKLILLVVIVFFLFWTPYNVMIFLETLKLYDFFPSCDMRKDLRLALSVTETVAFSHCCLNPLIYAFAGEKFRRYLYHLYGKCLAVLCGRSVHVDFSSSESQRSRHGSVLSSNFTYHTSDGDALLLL

CHRM3, sequence (P20309 whole entry): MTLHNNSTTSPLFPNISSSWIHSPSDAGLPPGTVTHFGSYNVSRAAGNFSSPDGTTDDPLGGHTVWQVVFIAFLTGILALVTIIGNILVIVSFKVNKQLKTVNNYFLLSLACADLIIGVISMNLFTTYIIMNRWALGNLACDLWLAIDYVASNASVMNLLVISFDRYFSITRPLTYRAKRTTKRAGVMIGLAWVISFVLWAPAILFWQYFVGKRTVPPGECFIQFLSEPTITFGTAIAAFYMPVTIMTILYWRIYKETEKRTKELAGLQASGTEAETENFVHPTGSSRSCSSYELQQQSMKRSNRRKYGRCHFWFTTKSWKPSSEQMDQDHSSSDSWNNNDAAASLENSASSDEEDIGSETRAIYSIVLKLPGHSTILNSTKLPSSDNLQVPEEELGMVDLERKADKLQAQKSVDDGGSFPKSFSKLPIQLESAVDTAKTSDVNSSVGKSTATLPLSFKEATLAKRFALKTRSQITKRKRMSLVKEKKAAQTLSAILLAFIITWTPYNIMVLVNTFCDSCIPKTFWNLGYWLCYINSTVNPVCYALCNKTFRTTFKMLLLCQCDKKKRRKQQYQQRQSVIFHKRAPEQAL
T14 sequence (Q9Y5Y4 whole entry): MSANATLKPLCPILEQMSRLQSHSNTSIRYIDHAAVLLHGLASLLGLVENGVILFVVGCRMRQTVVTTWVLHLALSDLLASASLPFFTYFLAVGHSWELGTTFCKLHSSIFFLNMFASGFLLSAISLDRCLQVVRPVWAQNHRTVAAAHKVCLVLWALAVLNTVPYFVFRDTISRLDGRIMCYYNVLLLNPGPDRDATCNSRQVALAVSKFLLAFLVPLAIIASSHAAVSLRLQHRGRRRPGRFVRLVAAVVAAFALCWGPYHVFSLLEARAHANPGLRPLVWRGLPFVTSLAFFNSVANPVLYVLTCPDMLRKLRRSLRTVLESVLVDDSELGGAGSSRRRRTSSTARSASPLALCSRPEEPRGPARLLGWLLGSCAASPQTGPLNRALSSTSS
T17 sequence (P61073 whole entry): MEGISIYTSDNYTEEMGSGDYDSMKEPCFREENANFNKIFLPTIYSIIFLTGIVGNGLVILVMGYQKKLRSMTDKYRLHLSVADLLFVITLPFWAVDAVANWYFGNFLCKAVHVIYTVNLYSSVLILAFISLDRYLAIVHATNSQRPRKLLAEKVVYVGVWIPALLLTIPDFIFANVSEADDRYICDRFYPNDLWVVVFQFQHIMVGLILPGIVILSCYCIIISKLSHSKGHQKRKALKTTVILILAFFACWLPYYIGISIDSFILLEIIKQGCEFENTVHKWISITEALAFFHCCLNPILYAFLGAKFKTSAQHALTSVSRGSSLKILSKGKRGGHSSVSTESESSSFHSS
T12 sequence (P21554 whole entry): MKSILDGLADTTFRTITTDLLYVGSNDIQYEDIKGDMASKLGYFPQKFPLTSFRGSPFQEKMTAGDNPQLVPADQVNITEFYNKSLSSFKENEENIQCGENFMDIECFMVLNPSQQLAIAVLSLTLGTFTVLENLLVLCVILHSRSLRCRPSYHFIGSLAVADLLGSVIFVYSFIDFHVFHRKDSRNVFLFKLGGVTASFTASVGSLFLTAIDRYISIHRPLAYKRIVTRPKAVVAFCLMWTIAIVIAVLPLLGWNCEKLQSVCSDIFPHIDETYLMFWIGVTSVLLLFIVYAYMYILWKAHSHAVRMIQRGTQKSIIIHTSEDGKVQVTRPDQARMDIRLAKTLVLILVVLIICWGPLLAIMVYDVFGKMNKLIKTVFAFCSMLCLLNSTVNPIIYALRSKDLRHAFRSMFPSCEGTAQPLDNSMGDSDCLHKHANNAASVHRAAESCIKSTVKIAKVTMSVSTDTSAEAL
T4 sequence (P51681 whole entry): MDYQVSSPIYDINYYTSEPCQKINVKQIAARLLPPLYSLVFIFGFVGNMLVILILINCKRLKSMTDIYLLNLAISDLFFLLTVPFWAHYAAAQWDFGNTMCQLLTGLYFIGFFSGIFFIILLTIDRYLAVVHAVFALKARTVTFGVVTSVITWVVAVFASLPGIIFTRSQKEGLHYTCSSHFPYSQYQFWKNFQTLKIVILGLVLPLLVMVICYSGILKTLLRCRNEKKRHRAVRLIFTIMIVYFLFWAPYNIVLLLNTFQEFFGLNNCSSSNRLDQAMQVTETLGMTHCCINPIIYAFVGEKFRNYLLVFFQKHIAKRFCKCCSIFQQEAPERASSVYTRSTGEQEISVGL
T10 sequence (P08173 whole entry): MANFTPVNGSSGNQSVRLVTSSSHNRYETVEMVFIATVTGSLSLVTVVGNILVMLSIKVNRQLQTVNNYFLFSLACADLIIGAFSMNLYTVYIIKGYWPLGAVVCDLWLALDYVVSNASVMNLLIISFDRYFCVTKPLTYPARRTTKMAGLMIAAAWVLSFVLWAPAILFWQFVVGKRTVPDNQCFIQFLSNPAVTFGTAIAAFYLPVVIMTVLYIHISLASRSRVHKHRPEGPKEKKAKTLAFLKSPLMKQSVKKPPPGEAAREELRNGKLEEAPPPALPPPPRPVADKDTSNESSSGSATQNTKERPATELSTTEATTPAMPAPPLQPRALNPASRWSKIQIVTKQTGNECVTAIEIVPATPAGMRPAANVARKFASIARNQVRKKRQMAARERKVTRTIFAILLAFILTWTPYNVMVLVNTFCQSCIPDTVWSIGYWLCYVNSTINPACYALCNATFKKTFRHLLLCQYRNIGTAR
T13 sequence (P34972 whole entry): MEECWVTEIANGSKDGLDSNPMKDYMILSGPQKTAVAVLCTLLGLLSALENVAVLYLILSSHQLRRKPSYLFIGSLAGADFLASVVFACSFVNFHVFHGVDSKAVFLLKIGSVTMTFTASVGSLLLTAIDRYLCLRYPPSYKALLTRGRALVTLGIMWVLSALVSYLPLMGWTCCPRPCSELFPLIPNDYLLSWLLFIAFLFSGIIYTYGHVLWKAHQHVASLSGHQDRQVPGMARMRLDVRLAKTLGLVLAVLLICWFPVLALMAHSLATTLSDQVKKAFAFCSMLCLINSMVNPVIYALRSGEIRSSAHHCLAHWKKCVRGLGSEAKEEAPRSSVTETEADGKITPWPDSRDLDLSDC
T6 sequence (Q13324 whole entry): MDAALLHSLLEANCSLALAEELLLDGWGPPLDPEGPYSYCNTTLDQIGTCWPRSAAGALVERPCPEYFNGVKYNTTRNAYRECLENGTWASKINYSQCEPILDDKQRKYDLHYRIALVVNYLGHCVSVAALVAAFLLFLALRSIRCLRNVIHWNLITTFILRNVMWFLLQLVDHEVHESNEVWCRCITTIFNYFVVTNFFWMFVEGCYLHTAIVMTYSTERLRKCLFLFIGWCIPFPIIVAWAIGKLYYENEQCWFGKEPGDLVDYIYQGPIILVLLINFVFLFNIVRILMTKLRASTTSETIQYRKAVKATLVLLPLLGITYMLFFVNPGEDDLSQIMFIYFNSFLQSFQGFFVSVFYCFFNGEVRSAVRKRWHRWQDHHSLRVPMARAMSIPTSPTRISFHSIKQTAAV
T9 sequence (P08912 whole entry): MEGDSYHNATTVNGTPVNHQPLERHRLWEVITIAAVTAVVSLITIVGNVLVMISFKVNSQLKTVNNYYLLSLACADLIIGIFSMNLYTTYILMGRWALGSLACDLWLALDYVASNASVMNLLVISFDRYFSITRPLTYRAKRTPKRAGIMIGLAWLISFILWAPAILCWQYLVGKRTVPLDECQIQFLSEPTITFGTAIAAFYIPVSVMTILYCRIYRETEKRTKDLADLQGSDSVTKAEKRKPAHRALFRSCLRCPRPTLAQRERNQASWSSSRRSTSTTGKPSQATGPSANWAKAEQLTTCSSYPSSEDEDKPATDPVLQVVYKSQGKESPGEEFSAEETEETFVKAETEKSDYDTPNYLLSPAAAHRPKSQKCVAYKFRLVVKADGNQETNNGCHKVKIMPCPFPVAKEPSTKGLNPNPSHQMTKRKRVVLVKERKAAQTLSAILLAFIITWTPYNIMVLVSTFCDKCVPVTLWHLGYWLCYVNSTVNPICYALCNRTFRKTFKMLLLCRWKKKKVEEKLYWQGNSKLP
T7 sequence (P41597 whole entry): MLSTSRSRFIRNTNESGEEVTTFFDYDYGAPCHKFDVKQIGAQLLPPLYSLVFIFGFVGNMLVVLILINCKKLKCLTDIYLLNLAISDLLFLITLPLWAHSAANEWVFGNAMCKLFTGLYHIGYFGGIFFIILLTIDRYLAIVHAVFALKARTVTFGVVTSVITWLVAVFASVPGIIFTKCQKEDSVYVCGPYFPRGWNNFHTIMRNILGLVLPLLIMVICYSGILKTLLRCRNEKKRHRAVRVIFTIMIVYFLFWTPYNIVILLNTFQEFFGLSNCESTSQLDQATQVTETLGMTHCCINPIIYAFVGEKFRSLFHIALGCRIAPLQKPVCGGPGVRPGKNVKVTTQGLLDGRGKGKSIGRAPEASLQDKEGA

CXCL8: control agonist
EC80 [1]: 0.000953 µM
EC80 [2]: 0.00495 µM

CCL3: control agonist
EC80 [3]: 0.00253 µM
EC80 [4]: 0.0101 µM

CXCL11: control agonist
EC80 [5]: 0.0179 µM

Sauvagine
EC80 [6]: 0.0247 µM

CCL2: control agonist
EC80 [7]: 0.00698 µM

CC(=O)OCC[N+](C)(C)C [Acetylcholine]
EC80 ([8]; follow-up concentration-response assays): 24.817 µM
EC80 ([8]; screen, CHO, 37C, 2HR): 24.8 µM
EC80 [9]: 1.03 µM
EC80 [10]: 3.91 µM
EC80 [11]: 3.54 µM and 3.5393 µM

CCL19: control agonist
EC80 [12]: 0.0189 µM

CCCCCCC(C)(C)c1ccc([C@@H]2C[C@H](O)CC[C@H]2CCCO)c(O)c1 [CP55940]
EC80 [13]: 0.0203 µM
LDH in cell media, normalized to total LDH ([14]; 1 h): 28.90 ± 7.81%
LDH increase compared with vehicle ([14]; 6 h): no effect was observed
EC80 [15]: 0.00412 µM

CCCCC[C@H](O)/C=C/[C@H]1C(=O)C[C@H](O)[C@@H]1C/C=C\CCCC(=O)O [PGD2]
EC80 [16]: 0.0238 µM

CCL13: control agonist
EC80 [17]: 0.0464 µM

CXCL13: control agonist
EC80 [18]: 0.0613 µM

CXCL12: control agonist
EC80 [19]: 0.00515 µM

B1: Fractalkine: control agonist (protein, UniProt P78423 25-397, looked up)
Fractalkine: QHHGVTKCNITCSKMTSKIPVALLIHYQQNQASCGKRAIILETRQHRLFCADPKEQWVKDAMQHLDRQAAALTRNGGTFEKQIGEVKPRTTPAAGGMDESVVLEPEATGESSSLEPTPSSQEAQRALGTSPELPTGVTGSSGTRLPPTPKAQDGGPVGTELFRVPPVSTAATWQSSAPHQPGPSLWAEAKTSEAPSTQDPSTQASTASSPAPEENAPSEGQRVWGQGQSPRPENSLEREEMGPVPAHTDAFQDWGPGSMAHVSVVPVSSEGTPSREPVASGSWTPKAEEPIHATMDPQRLGVLITPVPDAQAATRRQAVGLLAFLGLLFCLGVAMFTYQSLQGCPRKMAGEMAEGLRYIPRSCGSNSYVLVPV
EC80 [20]: 0.00192 µM
